T1: CD30 on CD30-expressing tumor cell lines (HH, MJ, H9) (UniProt P28908 19-595)
T1 sequence (looked up): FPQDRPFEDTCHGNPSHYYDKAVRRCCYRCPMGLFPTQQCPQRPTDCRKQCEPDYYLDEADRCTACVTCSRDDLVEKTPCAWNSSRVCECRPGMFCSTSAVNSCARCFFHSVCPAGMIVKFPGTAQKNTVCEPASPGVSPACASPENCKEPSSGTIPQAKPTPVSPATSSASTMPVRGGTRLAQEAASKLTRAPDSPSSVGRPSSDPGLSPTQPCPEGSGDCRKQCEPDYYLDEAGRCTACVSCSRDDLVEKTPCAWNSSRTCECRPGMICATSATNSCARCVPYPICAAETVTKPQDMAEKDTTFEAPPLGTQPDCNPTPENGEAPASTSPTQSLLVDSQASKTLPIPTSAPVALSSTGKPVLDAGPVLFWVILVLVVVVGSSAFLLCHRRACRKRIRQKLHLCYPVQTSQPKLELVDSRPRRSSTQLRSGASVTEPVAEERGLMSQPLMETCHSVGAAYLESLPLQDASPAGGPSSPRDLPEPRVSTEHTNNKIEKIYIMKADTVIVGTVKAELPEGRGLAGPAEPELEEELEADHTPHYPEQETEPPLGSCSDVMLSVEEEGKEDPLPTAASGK

T2: recombinant human CD30 extra cellular domain (ECD) protein (human, UniProt P28908 19-379)
T2 construct: Bought from R&D systems; also called rhCD30; human CD30 ECD
T2 sequence: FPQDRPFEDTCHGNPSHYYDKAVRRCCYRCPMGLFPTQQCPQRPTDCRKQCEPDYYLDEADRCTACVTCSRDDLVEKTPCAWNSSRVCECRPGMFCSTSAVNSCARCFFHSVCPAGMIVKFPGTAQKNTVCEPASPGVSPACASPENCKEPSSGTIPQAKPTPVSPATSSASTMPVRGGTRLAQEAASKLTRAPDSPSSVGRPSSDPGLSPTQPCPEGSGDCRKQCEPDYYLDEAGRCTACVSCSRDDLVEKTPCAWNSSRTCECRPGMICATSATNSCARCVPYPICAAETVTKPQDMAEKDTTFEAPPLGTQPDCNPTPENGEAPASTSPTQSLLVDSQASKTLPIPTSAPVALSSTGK

T3: rhesus CD30 ECD (rhesus, UniProt P28908 19-379 (human entry))
T3 construct: Produced in house; also called recombinant rhesus CD30; rhesus CD30 protein
T3 chain: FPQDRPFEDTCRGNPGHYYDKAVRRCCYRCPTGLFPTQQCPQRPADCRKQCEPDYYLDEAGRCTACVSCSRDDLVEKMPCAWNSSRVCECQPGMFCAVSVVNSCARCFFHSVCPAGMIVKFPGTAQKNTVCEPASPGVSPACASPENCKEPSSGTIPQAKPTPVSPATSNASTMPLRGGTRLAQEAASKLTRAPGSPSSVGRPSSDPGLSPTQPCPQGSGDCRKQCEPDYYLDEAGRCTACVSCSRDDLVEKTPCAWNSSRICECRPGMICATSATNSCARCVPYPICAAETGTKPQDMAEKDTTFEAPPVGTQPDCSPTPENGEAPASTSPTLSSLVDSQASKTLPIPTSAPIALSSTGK


Assays:
[1] = target: T1, CD30 on CD30-expressing tumor cell …; experiment: cell-based or functional assay
[2] = target: T1, CD30 on CD30-expressing tumor cell …; experiment: cell-based or functional assay; remark: listed apart in the source
[3] = target: T2, recombinant human CD30 extra cellular …; experiment: SPR Biacore T200, His-tagged sdAb/Fab captured, 100.0 nM human CD30 as analyte, single curve
Protocol: Some of these unique binders were subjected to for further characterization by surface plasmon resonance (SPR) on a BIAcore T200 instrument (GE Healthcare). The experiment was carried out as follows. The crude sdAb/Fab proteins were captured through an affinity tag (6×Histidine tag) onto the sensorchip. High-concentration (100.0 nM) of human CD30 (R&D systems, Cat. #6126-CD) flowed over the sensorchip surface, and were allowed to bind the antibody fragments for 300 s followed by injection of the running buffer to allow dissociation of the complex. On-rate ([…] and off-rate (kd) were roughly calculated based on one association and dissociation curve, and were used to estimate the equilibrium dissociation constant (KD). 5F11 scFv (SEQ ID NO:216, prepared according to WO2017066122) was used as a positive control. Data were summarized in Table 3 below. The first 10 antibodies in Table 3 were sdAbs with amino acid sequence ID numbers summarized in Table 1, the last antibody was 5F11 scFv, and the remainings were human Fabs with CDR and scFv amino acid sequence ID numbers in Table 2.

[4] = target: T3, rhesus CD30 ECD; experiment: ELISA on rhesus CD30 ECD protein; member of the group by paragraph 437

| Binder | % H9 cell lysis E:T = 0.2:1 (FACS method, CAR T cells) [1] | % MJ cell lysis E:T = 0.2:1 (FACS method, CAR T cells) [1] | % H9 cell lysis E:T = 2:1 (LDH assay, CAR T cells) [2] | % MJ cell lysis E:T = 1:1 (LDH assay, CAR T cells) [2] | Kd [3] | koff [3] | kon [3] | rhCD30 Binding (RU) [3] | binding result [4] |
| --- | --- | --- | --- | --- | --- | --- | --- | --- | --- |
| AS48463VH4dil-bbz CAR (other) EVQLLESGGGLVQPGGSLRLSCAASGFTFANSDMGWYRQAPGKGCELVSIISSHGGTTYYVDSVKGRFTISRDNSKNTLYLQMNSLRAEDTAVYYCVADPRSNCRGGYCCGYWGQGTLVTVSSGGGGSGGGGSGGGGSEVQLLESGGGLVQPGGSLRLSCAASGFTFANSDMGWYRQAPGKGCELVSIISSHGGTTYYVDSVKGRFTISRDNSKNTLYLQMNSLRAEDTAVYYCVADPRSNCRGGYCCGYWGQGTLVTVSSTTTPAPRPPTPAPTIASQPLSLRPEACRPAAGGAVHTRGLDFACDIYIWAPLAGTCGVLLLSLVITLYCKRGRKKLLYIFKQPFMRPVQTTQEEDGCSCRFPEEEEGGCELRVKFSRSADAPAYKQGQNQLYNELNLGRREEYDVLDKRRGRDPEMGGKPRRKNPQEGLYNELQKDKMAEAYSEIGMKGERRRGKGHDGLYQGLSTATKDTYDALHMQALPPR | 30.8% | 26.3% | 63% | 53% | – | – | – | – | – |
| AS47863VH4dil-bbz CAR (other) EVQLVESGGGLVQPGGSLRLSCAASGSTFGDSDMGWYRQAPGKGCELVSIISSDGRTYYVDSVKGRFTISQDNSKNTLYLQMNSLRAEDTAVYYCAADLRQYCRDGRCCGYWGQGTLVTVSSGGGGSGGGGSGGGGSEVQLVESGGGLVQPGGSLRLSCAASGSTFGDSDMGWYRQAPGKGCELVSIISSDGRTYYVDSVKGRFTISQDNSKNTLYLQMNSLRAEDTAVYYCAADLRQYCRDGRCCGYWGQGTLVTVSSTTTPAPRPPTPAPTIASQPLSLRPEACRPAAGGAVHTRGLDFACDIYIWAPLAGTCGVLLLSLVITLYCKRGRKKLLYIFKQPFMRPVQTTQEEDGCSCRFPEEEEGGCELRVKFSRSADAPAYKQGQNQLYNELNLGRREEYDVLDKRRGRDPEMGGKPRRKNPQEGLYNELQKDKMAEAYSEIGMKGERRRGKGHDGLYQGLSTATKDTYDALHMQALPPR | 44.2% | 30.4% | 64% | 50% | – | – | – | – | – |
| AS53574VH7-AS47863VH4bil-bbz CAR (other) EVQLVESGGGLVQPGGSLRLSCAASGYIYSSNCMGWFRQAPGKGREWVARIHTGSGSTYYADSVKGRFTISQDNSKNTLYLQMNSLRAEDTAVYDCAAGRVVLGAVVCTNEYWGQGTLVTVSSGGGGSGGGGSGGGGSEVQLVESGGGLVQPGGSLRLSCAASGSTFGDSDMGWYRQAPGKGCELVSIISSDGRTYYVDSVKGRFTISQDNSKNTLYLQMNSLRAEDTAVYYCAADLRQYCRDGRCCGYWGQGTLVTVSSTTTPAPRPPTPAPTIASQPLSLRPEACRPAAGGAVHTRGLDFACDIYIWAPLAGTCGVLLLSLVITLYCKRGRKKLLYIFKQPFMRPVQTTQEEDGCSCRFPEEEEGGCELRVKFSRSADAPAYKQGQNQLYNELNLGRREEYDVLDKRRGRDPEMGGKPRRKNPQEGLYNELQKDKMAEAYSEIGMKGERRRGKGHDGLYQGLSTATKDTYDALHMQALPPR | 41.6% | 71.3% | 72% | 56% | – | – | – | – | – |
| AS48481 sdAb (VHH, Camel sdAb) VHH: EVQLVASGGGSVQAGETLRLSCTASGFTFADSAMGWYRKGPGNVCDLVAIIRTDGTTYYGDSAKGRFTISRDNAKSTLYLQMNSLKPEDTAVYFCAADRETSFIGGSWCVAKYWDQGTQVTVSS | – | – | – | – | 95 nM | 0.0081 s⁻¹ | 86000 M⁻¹ s⁻¹ | 26.3 RU | binds |
| AS48542VH5dil-bbz CAR (other) EVQLVESGGGLVQPGGSLRLSCATSAFTFDGPDMAWYRQAPGKGCELVSIISADGRTYYADSVKGRFTISRDNSKNTVYLQMNSLRAEDTAVYYCALDPRKNCRGGYCCANWGQGTLVTVSSGGGGSGGGGSGGGGSEVQLVESGGGLVQPGGSLRLSCATSAFTFDGPDMAWYRQAPGKGCELVSIISADGRTYYADSVKGRFTISRDNSKNTVYLQMNSLRAEDTAVYYCALDPRKNCRGGYCCANWGQGTLVTVSSTTTPAPRPPTPAPTIASQPLSLRPEACRPAAGGAVHTRGLDFACDIYIWAPLAGTCGVLLLSLVITLYCKRGRKKLLYIFKQPFMRPVQTTQEEDGCSCRFPEEEEGGCELRVKFSRSADAPAYKQGQNQLYNELNLGRREEYDVLDKRRGRDPEMGGKPRRKNPQEGLYNELQKDKMAEAYSEIGMKGERRRGKGHDGLYQGLSTATKDTYDALHMQALPPR | 40.4% | 63.4% | 66% | 64% | – | – | – | – | – |

Second part, the binder after the results:

| % H9 cell lysis E:T = 0.2:1 (FACS method, CAR T cells) [1] | % MJ cell lysis E:T = 0.2:1 (FACS method, CAR T cells) [1] | % H9 cell lysis E:T = 2:1 (LDH assay, CAR T cells) [2] | % MJ cell lysis E:T = 1:1 (LDH assay, CAR T cells) [2] | Kd [3] | koff [3] | kon [3] | rhCD30 Binding (RU) [3] | binding result [4] | Binder |
| --- | --- | --- | --- | --- | --- | --- | --- | --- | --- |
| 29.8% | 50.5% | 84% | 76% | – | – | – | – | – | AS53574VH7-AS48542VH5bil-bbz CAR (other) EVQLVESGGGLVQPGGSLRLSCAASGYIYSSNCMGWFRQAPGKGREWVARIHTGSGSTYYADSVKGRFTISQDNSKNTLYLQMNSLRAEDTAVYDCAAGRVVLGAVVCTNEYWGQGTLVTVSSGGGGSGGGGSGGGGSEVQLVESGGGLVQPGGSLRLSCATSAFTFDGPDMAWYRQAPGKGCELVSIISADGRTYYADSVKGRFTISRDNSKNTVYLQMNSLRAEDTAVYYCALDPRKNCRGGYCCANWGQGTLVTVSSTTTPAPRPPTPAPTIASQPLSLRPEACRPAAGGAVHTRGLDFACDIYIWAPLAGTCGVLLLSLVITLYCKRGRKKLLYIFKQPFMRPVQTTQEEDGCSCRFPEEEEGGCELRVKFSRSADAPAYKQGQNQLYNELNLGRREEYDVLDKRRGRDPEMGGKPRRKNPQEGLYNELQKDKMAEAYSEIGMKGERRRGKGHDGLYQGLSTATKDTYDALHMQALPPR |
| 38.3% | 40.7% | 78% | 59% | – | – | – | – | – | AS53574VH7-AS48463VH4bil-bbz CAR (other) EVQLVESGGGLVQPGGSLRLSCAASGYIYSSNCMGWFRQAPGKGREWVARIHTGSGSTYYADSVKGRFTISQDNSKNTLYLQMNSLRAEDTAVYDCAAGRVVLGAVVCTNEYWGQGTLVTVSSGGGGSGGGGSGGGGSEVQLLESGGGLVQPGGSLRLSCAASGFTFANSDMGWYRQAPGKGCELVSIISSHGGTTYYVDSVKGRFTISRDNSKNTLYLQMNSLRAEDTAVYYCVADPRSNCRGGYCCGYWGQGTLVTVSSTTTPAPRPPTPAPTIASQPLSLRPEACRPAAGGAVHTRGLDFACDIYIWAPLAGTCGVLLLSLVITLYCKRGRKKLLYIFKQPFMRPVQTTQEEDGCSCRFPEEEEGGCELRVKFSRSADAPAYKQGQNQLYNELNLGRREEYDVLDKRRGRDPEMGGKPRRKNPQEGLYNELQKDKMAEAYSEIGMKGERRRGKGHDGLYQGLSTATKDTYDALHMQALPPR |

Reference: US20220144960A1 (NANJING LEGEND BIOTECH, published 2022)
